In US20130310310A1 one finds EC50, GLP-1 receptor agonistic activity (CRE-luciferase reporter in HEK293 cells) and EC50 (nM), GLP-1 receptor agonistic activity (CRE-luciferase reporter in HEK293 cells) data, which are given here for 2 substances.

In test [1] the target is GLP-1 receptor.
Test [2] deals with GLP-1 receptor. This is another data set of the same source.

Exendin-4 (peptide) yielded an EC50, GLP-1 receptor agonistic activity (CRE-luciferase reporter in HEK293 cells) in the test with GLP-1 receptor [1] of 1.93 nM.
Turning to “[Cys^21(mPEG5000-MAL)] Exendin-4 (peptide)”, in the test with GLP-1 receptor [2], the EC50 (nM), GLP-1 receptor agonistic activity (CRE-luciferase reporter in HEK293 cells) amounted to 22.5 nM.
